Experimental findings from patent US20160228563A1 (USTAV ORGANICKE CHEMIE A BIOCHEMIE AKADEMIE VED CR V V I, published 2016) are described below.

In assay [1] the target is T1, rat PrRP receptor (GPR10) in RC-4B/C rat pituitary cells (rat, UniProt Q64121 1-370).
T1 construct: whole, on cells; receptor as expressed by RC-4B/C cells (ATCC); also called rat receptor; rat RC-4B/C cell receptor
T1 sequence (looked up): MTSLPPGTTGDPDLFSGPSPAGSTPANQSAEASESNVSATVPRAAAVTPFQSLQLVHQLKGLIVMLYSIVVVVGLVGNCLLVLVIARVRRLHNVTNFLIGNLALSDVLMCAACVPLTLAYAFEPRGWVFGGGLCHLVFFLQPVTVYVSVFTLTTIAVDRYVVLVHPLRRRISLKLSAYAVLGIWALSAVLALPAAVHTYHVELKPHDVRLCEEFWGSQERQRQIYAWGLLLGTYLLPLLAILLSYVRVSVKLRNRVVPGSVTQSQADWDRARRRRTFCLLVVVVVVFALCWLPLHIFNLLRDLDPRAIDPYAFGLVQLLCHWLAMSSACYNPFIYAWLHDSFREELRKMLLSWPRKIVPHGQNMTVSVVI
Kind of assay: 125I-rat PrRP31 displacement, RC-4B/C cells. The procedure:
(§1) Competitive binding experiments were performed according to Motulsky and Neubig (Motulsky, A., et al., “Analyzing radioligand binding data,” Curr Protoc Neurosci, Chapter 7, Unit 7.5, 2002). Binding experiments were conducted with rat pituitary cells, and with Chinese Hamster Ovary (CHO) cells as follows:
The rat pituitary cell line RC-4B/C (ATCC, Manassas, USA) was grown on 24-well plates which had their bottom coated with polyethyleneimine. The cells were grown to the optimal density of 300-450 thousand cells per well.
(§2) Plates were incubated for 60 minutes at room temperature. After incubation, the cells were solubilized in 0.1 mol/l solution of NaOH, and the radioactivity bound to the cells was counted using a γ-counter. The experiments were performed in duplicate, and repeated at least three times.

In assay [2] the target is T2, human PrRP receptor GPR10 transfected in CHO cells (human, UniProt P49683 1-370).
T2 construct: whole, on cells; also called GPR10 human receptor; human GPR10 receptor
T2 sequence (looked up): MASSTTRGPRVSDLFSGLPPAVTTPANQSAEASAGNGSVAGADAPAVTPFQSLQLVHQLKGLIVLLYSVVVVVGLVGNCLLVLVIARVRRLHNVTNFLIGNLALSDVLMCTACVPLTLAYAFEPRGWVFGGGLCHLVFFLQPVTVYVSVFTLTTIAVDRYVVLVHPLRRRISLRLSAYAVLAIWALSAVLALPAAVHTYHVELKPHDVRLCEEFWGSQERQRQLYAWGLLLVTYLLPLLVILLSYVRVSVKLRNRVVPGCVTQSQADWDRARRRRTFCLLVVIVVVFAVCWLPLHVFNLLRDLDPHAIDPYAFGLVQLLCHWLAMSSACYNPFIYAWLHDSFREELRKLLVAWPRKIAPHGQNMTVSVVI
Kind of assay: 125I-human PrRP31 displacement, CHO-GPR10 cells. As to the method: as §1
CHO cells transfected with human PrRP receptor GPR10 (Perkin Elmer, USA) were grown on 24-well plates coated with polyethyleneimine. The cells were grown to the optimal density of 40-80 thousand cells per well.
as §2

Square brackets hold non-standard residues; d marks the D form. * marks the point of attachment. 1Nal = N[C@@H](Cc1cccc2ccccc12)C(=O)O; Stearoyl = CCCCCCCCCCCCCCCCCC(=O)*; Palmitoyl = CCCCCCCCCCCCCCCC(=O)*; Nle = CCCC[C@H](N)C(=O)O

Turning to Palmitoyl-SRAHQHS[Nle]ETRTPDINPAWYTGRGIRPVGR[1Nal]-NH2 [PrRP analog no. 12], the “% of PrRP31” value in assay [1] is 111%. Consider Stearoyl-SRAHQHS[Nle]ETRTPDINPAWYTGRGIRPVGRF-NH2 [PrRP analog no. 9], for which, in assay [2], the “% of PrRP31” value was 7%.
